Drawing on patent WO2007076336A1, this text covers IC50, inhibition of CGRP-induced cAMP in SK-N-MC cells (HTRF) for one substance.

The target in the assay is Human CGRP (Example 4, isoform not stated) (human) (UniProt P80511). As to the kind of experiment: cell-based or functional assay.
Chain of UniProt P80511 (P80511 2-92 limits assumed): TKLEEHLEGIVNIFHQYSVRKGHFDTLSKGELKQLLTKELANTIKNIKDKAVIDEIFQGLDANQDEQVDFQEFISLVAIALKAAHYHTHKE

For “monoclonal antibody C7113 (Sigma-Aldrich, St. Louis, MO)”, the IC50, inhibition of CGRP-induced cAMP in SK-N-MC cells (HTRF) is 0.0101 µM.
